The target of this assay is VEGF (UniProt P15692). Put plainly: native MS.

“VEGF (from UniProt P15692-4 1-191) (ligand)” returned a stoichiometry N of 2.

The stoichiometry N is a count of units in the complex or per binding partner.
